Results from patent US12123876B2, “Antibody binding to HEG1 and use of the antibody for detection and treatment of mesothelioma” (Kanagawa Prefectural Hospital Organization, priority 2016, dated 2024).

How the values were obtained:
[1] = test system: HEG1 protein (purified from ACC-MESO4 or recombinant soluble HEG1); test: Western blot / dot blot reactivity of antibodies with HEG1 protein; assay type: binding, human; conditions: Western blot, anti-human intelectin antibody-HRP as secondary antibody
Experimental: A massive amount of ACC-MESO4 was cultured, and purification of an antigen from the cell lysate was performed. Cells from 240 10-cm dishes were solubilized with 50 mM Tris buffer (pH 8.0) containing 1% TRITON™ X-100 (detergent), 1% CHAPS, 1 mM EDTA, 50 mM NaCl, and protease inhibitor (Complete, Roche Life Science), and then centrifuged. The resulting supernatant was dialyzed with 20 mM acetate buffer (pH 5.0) at 4° C. for 18 hours to afford an acidic precipitate. The precipitate was extracted with 20 mM Tris buffer (pH 7.2) containing 0.1% TWEEN® 20 (polyethylene glycol sorbitan monolaurate, polyoxyethylenesorbitan monolaurate) and 150 mM NaCl and centrifuged, and the resulting supernatant was concentrated by using an Amicon Ultra-15, 100 kDa (Merck Millipore) and subjected to solution exchange with 20 mM Tris buffer (pH 8.0) containing 6 M guanidine hydrochloride. To the concentrated solution, tris(2-carboxyethyl)phosphine hydrochloride with a final concentration of 10 mM was added, and the resultant was heated at 60° C. for 30 minutes, and iodoacetamide with a final concentration of 40 mM was then added thereto, and reacted at room temperature for 3 hours. The reaction solution was subjected to gel filtration chromatography (SUPEROSE® 6 INCREASE (prepacked column) 10/300 GL (GE Healthcare)) in 20 mM Tris buffer (pH 8.0) containing 6 M guanidine hydrochloride and 0.05% TWEEN® 20 (polyethylene glycol sorbitan monolaurate, polyoxyethylenesorbitan monolaurate), and fractions positive for dot blot were collected. The sample was dialyzed with 25 mM phosphate buffer (pH 7.0) containing 4 M urea and 0.05% TWEEN® 20 (polyethylene glycol sorbitan monolaurate, polyoxyethylenesorbitan monolaurate) at room temperature overnight, and applied to a Mono Q 5/50 GL (GE Healthcare). The column was washed with 25 mM phosphate buffer (pH 7.0) containing 4 M urea and 0.05% TWEEN® 20 (polyethylene glycol sorbitan monolaurate, polyoxyethylenesorbitan monolaurate), and thereafter elution was performed with an NaCl salt concentration gradient of 0 to 1 M. Fractions strongly positive for dot blot were collected, and dialyzed with 25 mM phosphate buffer (pH 7.2) containing 150 mM NaCl and 0.05% TWEEN® 20 (polyethylene glycol sorbitan monolaurate, polyoxyethylenesorbitan monolaurate) at room temperature overnight, and applied to 1 mL of WGA-SEPHAROSE® (wheat germ agglutinin-crosslinked, beaded-form of agarose) (J-OIL MILLS, Inc.). After washing with buffer, elution was performed with 25 mM phosphate buffer (pH 7.2) containing 0.2 M N-acetylglucosamine, 150 mM NaCl, and 0.05% TWEEN® 20 (polyethylene glycol sorbitan monolaurate, polyoxyethylenesorbitan monolaurate), and the eluent was concentrated with a Centricon (YM-30) (Millipore). Gel filtration chromatography (SUPEROSE® 6 INCREASE (prepacked column) 10/300 GL (GE Healthcare)) was performed in 25 mM phosphate buffer (pH 7.2) containing 3 M GdnHCI and 0.5% CHAPS, and fractions strongly positive for dot blot were dialyzed with 20 mM NH4HCO3 containing 0.5% CHAPS at room temperature overnight to afford a purified antigen.
The dot blot was performed as follows. A PVDF membrane (Immobilon-P, Merck Millipore) was soaked in methanol, and then washed and impregnated with pure water. The hydrophilized PVDF membrane was placed on a filter paper containing water to avoid air inclusion, removed of excessive moisture, and soaked with 1 to 5 μL of the sample in dots fed by a micropipette. After the membrane was dried at room temperature overnight, the membrane was hydrophilized again with methanol and pure water, and blocked with 20 mM Tris buffer (pH 7.4) containing 5% skim milk, 0.1% TWEEN® 20 (polyethylene glycol sorbitan monolaurate, polyoxyethylenesorbitan monolaurate), and 150 mM NaCl (blocking buffer) at room temperature for 1 hour. […]

SKM9-2 antibody = test: Western blot reactivity of human HEG1 fragments expressed in ACC-MESO-1 with SKM9-2 antibody; assay type: binding, mouse; conditions: Western blot of cell lysate
Experimental: In this Example, the mesothelioma cell line ACC-MESO-1 was allowed to express a human HEG1 fragment with the endogenous HEG1 of ACC-MESO-1 knocked down, and the reactivity with the SKM9-2 antibody was examined. Subsequently, the reactivity with the antibody was tested for the epitope region through alanine scanning, and key amino acids for binding to the antibody were determined.
Gene transfer was performed with HEG1 siRNA (H9106) (SEQ ID NOs: 40, 41) and human HEG1 for the mesothelioma cell line ACC-MESO-1, and the reactivity of the SKM9-2 was examined through Western blot analysis. A full length protein (HEG1 full length) or a fragment (HEG1 3 kb, HEG1 2 kb, or HEG1 1 kb) of the human HEG1 was used. The full length human HEG1 protein, a protein having the amino acid sequence set forth in SEQ ID NO: 35, was obtained through inserting a base sequence set forth in SEQ ID NO: 34 into pFLAG-CMV1 (Sigma-Aldrich Japan K.K.) to obtain a plasmid, transforming the plasmid, and allowing the mesothelioma cell line to express the plasmid. Fragment HEG1 3 kb was obtained through inserting a fragment corresponding to a sequence from position 285, leucine, to position 1387, phenylalanine, of SEQ ID NO: 35 into pFLAG-CMV1 (Sigma-Aldrich Japan K.K.) in an in-frame manner, and allowing the mesothelioma cell line to express the resultant. HEG1 2 kb and HEG1 1 kb were obtained through allowing the mesothelioma cell line to express products similarly obtained from a fragment corresponding to a sequence from position 677, leucine, to position 1387, phenylalanine, of SEQ ID NO: 35 and a fragment corresponding to a sequence from position 992, valine, to position 1387, phenylalanine, of SEQ ID NO: 35, respectively. Each cell lysate was analyzed through Western blot with the SKM9-2 antibody.
Further, the region in exon 7 of HEG1 was analyzed in detail. The amino acid sequence of a part of exon 7 of HEG1 was connected to the N-terminal side of a protein obtained by connecting a GPI anchor signal to human SLURP1 (SEQ ID NO: 42; hereinafter referred to as “SLURPgpi”) to produce a fusion protein, and the reactivity of the SKM9-2 was examined through Western blot analysis with the fusion protein. A signal sequence (SEQ ID NO: 43) was added to the N-terminal of the fusion protein before expression.
Used fusion proteins of a partial sequence of exon 7 of HEG1 and SLURPgpi were as follows: • a fragment obtained by bonding a fragment from amino acid No. 783, aspartic acid, to amino acid No. 991, serine, to SLURPgpi (7.6); • a fragment obtained by bonding a fragment from amino acid No. 832, glutamine, to amino acid No. 991, serine, to SLURPgpi (7.7); • a fragment obtained by bonding a fragment from amino acid No. 886, glutamine, to amino acid No. 991, serine, to SLURPgpi (7.8); • a fragment obtained by bonding a fragment from amino acid No. 941, alanine, to amino acid No. 991, serine, to SLURPgpi (7.9); • a fragment obtained by bonding SEQ ID NO: 44 to SLURPgpi (7.61); • a fragment obtained by bonding SEQ ID NO: 45 to SLURPgpi (7.62); • a fragment obtained by bonding SEQ ID NO: 46 to SLURPgpi (7.63); • a fragment obtained by bonding SEQ ID NO: 47 to SLURPgpi (7.64); • a fragment obtained by bonding SEQ ID NO: 48 to SLURPgpi (7.623); • a fragment obtained by bonding SEQ ID NO: 49 to SLURPgpi (7.6231); • a fragment obtained by bonding SEQ ID NO: 50 to SLURPgpi (7.6232); • a fragment obtained by bonding SEQ ID NO: 51 to SLURPgpi (7.6241); and • a fragment obtained by bonding SEQ ID NO: 52 to SLURPgpi (7.6242).

Molecule | Recognition of glycosylated HEG1 protein [1] | Recognition of glycosylated HEG1 protein ([1]; listed as protein complex including VH regions and CH1 regions of SKM9-2 antibody fused to) | Binding to SKM9-2 antibody (positive/negative) (SKM9-2 antibody) | Binding to SKM9-2 antibody (positive/negative) (SKM9-2 antibody; listed as fragment 7.62) | Binding to SKM9-2 antibody (positive/negative) (SKM9-2 antibody; listed as fragment 7.623)
intelectin-fused antibody: VH and CH1 of SKM9-2 H chain fused to human intelectin positions 19-313, co-expressed with SKM9-2 L chains (protein) QVQLQQPGAELVRPGASVKLSCKASGFSFTTYWITWVKQRPGQGLEWIGMIHPSDSETRLSQTFKDKATLTVDKSSNTAYMQFSSPTSEDSAVYYCVRDFDVWGAGTTVTVSSAKTTPPSVYPLAPGSAAQTNSMVTLGCLVKGYFPEPVTVTWNSGSLSSGVHTFPAVLQSDLYTLSSSVTVPSSTWPSETVTCNVAHPASSTKVDKKIVPRDCGTDEANTYFKEWTCSSSPSLPRSCKEIKDECPSAFDGLYFLRTENGVIYQTFCDMTSGGGGWTLVASVHENDMRGKCTVGDRWSSQQGSKADYPEGDGNWANYNTFGSAEAATSDDYKNPGYYDIQAKDLGIWHVPNKSPMQHWRNSALLRYRTDTGFLQTLGHNLFGIYQKYPVKYGEGKCWTDNGPVIPVVYDFGDAQKTASYYSPYGQREFTAGFVQFRVFNNERAANALCAGMRVTGCNTEHHCIGGGGYFPEASPQQCGDFSGFDWSGYGTHVGYSSSREITEAAVLLFYR light: DVLMTQTPLSLPVSLGDQASISCRSSQNIVHNNGNTYLGWYLQKPGQSPKLLIFKVSNRFSGVPDRFSGSGSGTDFTLKISRVEAEDLGVYYCFQGSHIPRTFGGGTRLEIKRADAAPTVSIFPPSSEQLTSGGASVVCFLNNFYPKDINVKWKIDGSERQNGVLNSWTDQDSKDSTYSMSSTLTLTKDEYERHNSYTCEATHKTSTSPIVKSFNRNEC | recognized the glycosylated HEG1 protein | allows detection of HEG1 protein | – | – | –
7.62: SEQ ID NO: 45 (EKVITESKSPSLVSLPTEST) bonded to SLURPgpi (protein) EKVITESKSPSLVSLPTESTGSLKCYTCKEPMTSASCRTITRCKPEDTACMTTLVTVEAEYPFNQSPVVTRSCSSSCVATDPDSIGAAHLIFCCFRDLCNSELSRDGAPSLGSPGGLLLALALFLLLGVLL | – | – | positive | positive signal | –
7.623: SEQ ID NO: 48 (SKSPSLVSLPTEST) bonded to SLURPgpi (protein) SKSPSLVSLPTESTGSLKCYTCKEPMTSASCRTITRCKPEDTACMTTLVTVEAEYPFNQSPVVTRSCSSSCVATDPDSIGAAHLIFCCFRDLCNSELSRDGAPSLGSPGGLLLALALFLLLGVLL | – | – | positive | – | positive signal
